Source: PMC10282093, “Structural basis of α1A-adrenergic receptor activation and recognition by an extracellular nanobody” (Nature Communications, 2023)
Several values for one entry are separate records, joined by “and”; a condition that tells them apart may be missing. Equal entries are not always repeated.

Assays:
α1AAR-kOR = molecular target: T1, α1AAR-kOR (Homo sapiens, UniProt P35348, DEL205-275/INS204TLMILRLKSVRLLSGSREKDRNLRRITRLVL/M115W/N13Q/N22Q/N7Q/S113R); test: [3H]prazosin radioligand binding, Sf9 membrane; settings: for [3H]prazosin binding: listed as Tam
T1 construct: C-terminus truncated human α1AAR (residues 1–370, full length: 466); hemagglutinin signal peptide (N); FLAG (N); 8×His (C); made in house; host or cells: Sf9 insect cells (membranes)

[1] = molecular target: T2, C-terminus truncated human α1AAR (residues 1-370; N7Q, N13Q, N22Q) (Homo sapiens, UniProt P35348, N7Q | N13Q | N22Q); test: radioligand binding; [3H]prazosin competition binding with Nb29 as competitor, α1AAR in Sf9 membranes; 20 mM Tris-HCl pH 7.5, 100 mM NaCl; 1 h at room temperature; settings: one partner purified
T2 construct: α1A-adrenergic receptor, human, residues 1-370 (full length: 466); also called α1A-adrenergic receptor; source: Sf9 insect cells (baculovirus); not shown: FLAG, N-terminal, kept

[2] = molecular target: T2, C-terminus truncated human α1AAR …; test: radioligand binding; [3H]prazosin competition binding with Nb29 as competitor, purified α1AAR bound to M1-Flag affinity resin; 20 mM HEPES pH 7.5, 100 mM NaCl, 0.01% MNG, 0.001% CHS, 2 mM CaCl2; 1 h at room temperature; settings: both partners purified
α1AAR = molecular target: T3, α1AAR (Homo sapiens, UniProt P35348, N13Q/N22Q/N7Q); test: On-yeast titration of Nb29 for α1AAR, flow cytometry; assay type: binding
T3 construct: C-terminus truncated human α1AAR (residues 1–370, full length: 466); hemagglutinin signal peptide (N); 8×His (C); made in house; host or cells: Sf9 insect cells (baculovirus)
T3 sequence (P35348 1-370 N7Q/N13Q/N22Q): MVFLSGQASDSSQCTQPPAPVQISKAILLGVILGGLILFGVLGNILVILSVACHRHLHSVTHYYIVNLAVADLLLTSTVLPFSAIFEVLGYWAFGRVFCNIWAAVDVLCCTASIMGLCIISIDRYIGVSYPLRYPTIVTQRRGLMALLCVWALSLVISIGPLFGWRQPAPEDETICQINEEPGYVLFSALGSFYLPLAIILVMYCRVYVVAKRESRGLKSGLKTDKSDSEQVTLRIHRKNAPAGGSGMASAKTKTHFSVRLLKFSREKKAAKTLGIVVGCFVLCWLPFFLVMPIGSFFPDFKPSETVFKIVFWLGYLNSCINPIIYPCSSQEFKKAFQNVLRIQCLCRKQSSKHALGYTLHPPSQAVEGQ
Experimental: Yeast cells were analyzed by Accuri C6 and the ratio of double-positive yeast cells among anti-HA positive cells was calculated.

[3] = 1 h, read-out: [3H]prazosin binding

T1 sequence (P35348 with tags, fused parts or gaps with the stated changes limits assumed): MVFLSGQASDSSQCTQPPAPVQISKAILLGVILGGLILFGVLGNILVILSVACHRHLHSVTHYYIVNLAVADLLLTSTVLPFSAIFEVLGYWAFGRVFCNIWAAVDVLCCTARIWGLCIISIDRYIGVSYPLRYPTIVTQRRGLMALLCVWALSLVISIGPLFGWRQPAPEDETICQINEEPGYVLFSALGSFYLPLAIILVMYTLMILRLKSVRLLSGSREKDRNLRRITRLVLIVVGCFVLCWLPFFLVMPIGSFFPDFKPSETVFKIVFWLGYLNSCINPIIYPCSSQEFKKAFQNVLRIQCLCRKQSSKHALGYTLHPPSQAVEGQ

Cc1cc(C(C)(C)C)c(O)c(C)c1CC1=NCCN1 [Oxymetazoline, oxymetazoline]
remaining activity at 0.001 µM (α1AAR-kOR; [3]): 89.3%
remaining activity at 0.01 µM (α1AAR-kOR; [3]): 83.5%
remaining activity at 1 µM (α1AAR-kOR; [3]): 13.3%

CCOc1ccccc1OCCN[C@H](C)Cc1ccc(OC)c(S(N)(=O)=O)c1 [Tamsulosin, tamsulosin]
[3H]prazosin binding (α1AAR-kOR; Tam Log[M] -4, + 5 μM Nb6): 0.3% and 1.4% and 0.5%
[3H]prazosin binding (α1AAR-kOR; Tam Log[M] -4): 1.611% and 3.516% and 2.93%
[3H]prazosin binding (α1AAR-kOR; Tam Log[M] -5, + 5 μM Nb6): 2.5% and 2.1% and 1.4%
[3H]prazosin binding (α1AAR-kOR; Tam Log[M] -5): 3.223% and 3.809% and 3.369%
[3H]prazosin binding (α1AAR-kOR; Tam Log[M] -6, + 5 μM Nb6): 3.3% and 4.3% and 2.7%
[3H]prazosin binding (α1AAR-kOR; Tam Log[M] -6): 4.541% and 3.809% and 4.395%
[3H]prazosin binding (α1AAR-kOR; Tam Log[M] -7, + 5 μM Nb6): 48.154% and 49.4541% and 47.454%
[3H]prazosin binding (α1AAR-kOR; Tam Log[M] -7): 39.4775% and 27.2705% and 36.2061%
[3H]prazosin binding (α1AAR-kOR; Tam Log[M] -8, + 5 μM Nb6): 86.9072% and 94.5245% and 104.442%
[3H]prazosin binding (α1AAR-kOR; Tam Log[M] -8): 82.3975% and 81.5186% and 80.0537%
[3H]prazosin binding (α1AAR-kOR; Tam Log[M] -9, + 5 μM Nb6): 108.742% and 93.5245% and 98.1248%
[3H]prazosin binding (α1AAR-kOR; Tam Log[M] -9): 91.626% and 91.1865%
[3H]prazosin binding (α1AAR-kOR; Tam Log[M] -10, + 5 μM Nb6): 97.6581% and 106.126% and 95.8247%
[3H]prazosin binding (α1AAR-kOR; Tam Log[M] -10): 84.8877% and 109.009% and 95.459%
[3H]prazosin binding (α1AAR-kOR; Tam Log[M] -11, + 5 μM Nb6): 98.7416% and 100.042% and 78.5899%
[3H]prazosin binding (α1AAR-kOR; Tam Log[M] -11): 106.152% and 96.4844% and 97.3633%

B1: Nb29 (purified nanobody) (VHH)
VHH: QVQLQESGGGLVQAGGSLRLSCAASGNISAHWKMGWYRQAPGKEREFVAGIGYANTNYADSVKGRFTISRDNAKNTVYLQMNSLKPEDTAVYYCAAYSYYRDHSYWGQGTQVTVSS
notes: source: E. coli BL21(DE3), periplasmic (pET26b), purified (Ni-NTA, size-exclusion chromatography)
Ki [1]: 41 µM
Ki [2]: 6.4 µM

B2: Nb6: nanobody that engages the ICL3 of the inactive-state κ-opioid receptor (antibody, V domains shown)
VH: QVQLQESGGGLVQAGESLRLSCAASGTIFRLYDMGWYRRVSGNQRELVASITSGGSTKYGDSVKGRFTISRDNAKNTVYLQMSSLKPEDTAVYYCNAEYRTGIWEELLDGWGQGTQVTVSS
effect on [3H]prazosin binding (α1AAR-kOR): enhancement
Normalized [3H]prazosin-binding (α1AAR-kOR; with 5 μM Nb6): 182.818% and 184.467% and 175.395%

B3: Nb29: synthetic nanobody (single domain antibody) that binds the extracellular vestibule of α1AAR, preferentially oxymetazoline-bound (antibody, V domains shown)
VH: QVQLQESGGGLVQAGGSLRLSCAASGNISAHWKMGWYRQAPGKEREFVAGIGYANTNYADSVKGRFTISRDNAKNTVYLQMNSLKPEDTAVYYCAAYSYYRDHSYWGQGTQVTVSS
Nb29-expressing yeast cells bound to α1AAR (α1AAR; 500 μM Noradrenaline, α1AAR 4 nM): 4.281% and 5.07% and 1.08%
Nb29-expressing yeast cells bound to α1AAR (α1AAR; 500 μM Noradrenaline, α1AAR 16 nM): 4.4164% and 6.158% and 1.447%
Nb29-expressing yeast cells bound to α1AAR (α1AAR; 500 μM Noradrenaline, α1AAR 64 nM): 6.534% and 6.061% and 1.603%
Nb29-expressing yeast cells bound to α1AAR (α1AAR; 500 μM Oxymetazoline, α1AAR 64 nM): 56.0554% and 29.8113% and 58.3201%
Nb29-expressing yeast cells bound to α1AAR (α1AAR; 500 μM Oxymetazoline, α1AAR 256 nM): 56.0831% and 53.0792% and 88.1579%
Nb29-expressing yeast cells bound to α1AAR (α1AAR; 500 μM Phentolamine, α1AAR 4 nM): 4.281% and 2.134% and 0.9772%
Nb29-expressing yeast cells bound to α1AAR (α1AAR; 500 μM Phentolamine, α1AAR 16 nM): 4.4164% and 5.525% and 0.626%
Nb29-expressing yeast cells bound to α1AAR (α1AAR; 500 μM Phentolamine, α1AAR 64 nM): 6.534% and 6.745% and 1.138%
Nb29-expressing yeast cells bound to α1AAR (α1AAR; 500 μM Tam, α1AAR 4 nM): 1.7094% and 4.412% and 4.11%
Nb29-expressing yeast cells bound to α1AAR (α1AAR; 500 μM Tam, α1AAR 16 nM): 2.954% and 4.451% and 4.373%
Nb29-expressing yeast cells bound to α1AAR (α1AAR; 500 μM Tam, α1AAR 64 nM): 5.7377% and 5.491% and 6.25%
Nb29-expressing yeast cells bound to α1AAR (α1AAR; 500 μM Tam, α1AAR 256 nM): 3.361% and 11.8841% and 12.7329%
Bmax (α1AAR; Apo α1AAR): 35.8 ± 25.7%
Kd (α1AAR; Apo α1AAR): 0.209 ± 0.288 µM
Nb29-expressing yeast cells bound to α1AAR (α1AAR; Apo, α1AAR 4 nM): 4.848% and 6.304% and 2.077%
Nb29-expressing yeast cells bound to α1AAR (α1AAR; Apo, α1AAR 16 nM): 4.142% and 4.886% and 1.136%
Bmax (α1AAR; α1AAR + 500 μM noradrenaline): 10.9 ± 3.4%
Bmax (α1AAR; α1AAR + 500 μM oxymetazoline): 75.5 ± 13.8%
Bmax (α1AAR; α1AAR + 500 μM phentolamine): 24.8 ± 4.0%
Bmax (α1AAR; α1AAR + 500 μM tamsulosin): 8.90 ± 1.8%
